Experimental findings from patent US20020045192A1, “Arf and HDM2 interaction domains and methods of use thereof” (St. Jude Children's Research Hospital, priority 2001, published 2002) are described below.

Entries after “also recorded” stand apart in the source; their conditions may differ.

One assay has as its target T1, Hdm2 210-304 (Homo sapiens, UniProt Q00987).
T1 construct: poly-His (thrombin-cleavable, from pET28a) (cleaved yes); made in house; host or cells: E. coli BL21 (DE3)
Kind of assay: CD-based binding assay, β-strand formation with Hdm2 210-304. Here is the method: (§1) Spectra were recorded at 25° C. using an Aviv Model 62A DS circular dichroism spectropolarimeter (Aviv Instruments, Inc.) equipped with a thermoelectric temperature control unit. All samples were prepared in 10 mM Tris-HCl, pH 7.0 at 0.02-0.2 mM as determined by amino acid analysis. Spectra were recorded using 1 mm quartz cuveftes and reported spectra are the average of 10 scans over the range […]. Melting experiments were recorded in 10 mm quartz cuvettes with active stirring. The signal at 216 nm (β strand minimum) was used to monitor structural changes and the signal was averaged over 15 sec. The sample temperature was increased in 1° C. steps.
(§2) As discussed above, the addition of mArfN37 to Hdm2 210-304 results in the formation of supramolecular assemblies comprised of β-strands. Stepwise addition of sub-stoichiometric amounts of mArfN37 to Hdm2 210-304 increased β-strand secondary structure content as judged by the change in ellipticity at 200 nm using CD. […] The binding of mArfN37 to Hdm2 210-304, as monitored in this way, is saturable. Similar results were obtained when mArfN37 was mixed with the shorter fragment of Hdm2, Hdm2 210-275. Further, saturable binding is also observed when the Hdm2 fragments were added to an excess of mArfN37. These findings indicate that there are a limited number of binding sites for mArfN37 within Hdm2 210-304 and that discreet structures (containing β-strands) form when mArfN37 and Hdm2 210-304 (or 210-275) are mixed. […] Similar behavior is observed when mArfN37 binds Hdm2 210-275.
To investigate the roles of individual Arf motifs (A1 and A2) and Arf-binding segments of Hdm2 (H1 and H2) in the interactions between Arf and Hdm2 the binding of peptides containing these small segments (A1, A2, H1, or H2) to larger protein fragments of the corresponding binding partner (mArfN37 or Hdm2 210-304) were monitored using the CD-based binding assay. […] Peptides from the Hdm2 library that were positive for mArfN37 binding on the basis of SPR (i.e. those within H1 and H2) were mixed with mArfN37 and binding was monitored in the same manner. Three peptides from the H1 segment and one from the H2 segment of Hdm2 induce β-strand secondary structure when mixed with mArfN37 (FIG. 2c). These experiments indicate that peptides containing A1, A2, H1 or H2 can interact with larger fragments of the target protein and that the interactions also occur through the formation of β-sheet secondary structure. […] Importantly, however, further reduction in the size of the interacting species led to a loss of Arf/Hdm2 binding as judged by a failure to induce structure in CD titration experiments. […] Similarly, while peptides derived from the H1 or H2 segments of Hdm2 bind mArfN37, they fail to bind peptides derived from the A1 or A2 segments of mouse or human Arf. Furthermore, mixtures of two, three, or four different peptides that contain the important binding segments (A1, A2, H1, and H2) fail to interact, in contrast to the results obtained when A1 and A2, or H1 and H2, are covalent linked in larger protein fragments. Apparently, cooperative interactions between covalently linked binding segments from one protein (A1 and A2 of Arf, or H1 and H2 of Hdm2) are minimally required for Arf/Hdm2 interactions.

A further assay deals with T2, Hdm2 210-275 (Homo sapiens, UniProt Q00987).
T2 construct: poly-His (thrombin-cleavable, from pET28a) (cleaved yes); made in house; host or cells: E. coli BL21 (DE3)
T2 sequence (Q00987 210-275): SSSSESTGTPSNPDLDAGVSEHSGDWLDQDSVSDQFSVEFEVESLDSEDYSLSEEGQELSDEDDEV
Kind of assay: CD-based binding assay, β-strand formation with Hdm2 210-275. As for the experimental part: as §1, §2

The target in a further assay is T3, mArfN37 (Mus musculus, UniProt Q64364).
T3 construct: An N-terminal fragment of mouse p19^Arf corresponding to residues 1-37 (mArfN37) was purified in a similar manner; made in house
T3 sequence (Q64364 1-37 limits assumed): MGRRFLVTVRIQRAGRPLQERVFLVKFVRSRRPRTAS
Kind of assay: SPR binding of Hdm2 constructs and Hdm2 peptides to immobilized His-tagged mArfN37. As for the experimental part:
Binding studies were performed using a Biacore 3000 surface plasmon resonance (SPR) instrument (Biacore, Inc.). A Tetra-His™ Antibody (Qiagen, Inc.; Cat. #34670) was covalently attached to a carboxymethylated gold surface (C-1 chip; Biacore, Inc.). The carboxymethyl groups on the surface were activated with N-ethyl-N′-(3-dimethylaminopropyl) carbodiimide (EDC) and N-hydroxysuccinimide (NHS) and the antibody was attached at pH 7.4 in 20 mM sodium phosphate buffer, 150 mM NaCl (PBS). Reactive sites remaining on the surface were blocked by reaction with ethanolamine. […] Binding was measured by flowing the non-His-tagged analyte through the reference and ligand-containing flow cells in sequence. […] Changes in the SPR response due to solvent differences and the injection process were monitored by injection of HBS-N buffer alone. […]
It has been previously shown that a fragment of mouse p19^Arf containing the N-terminal 37 amino acids (mArfN37) can (i) bind Hdm2, (ii) cause the relocalization of Hdm2 to nucleoli, and (iii) induce cell cycle arrest in MEFs [see, U.S. patent application Ser. No. 09/480,718, Filed Jan. […] However, because mArfN37 is a relatively small polypeptide, it was determined whether it could bind a correspondingly small segment of Hdm2. […]
(In general: Surface plasmon resonance follows binding to a sensor surface in real time, without labels.)

In a further assay the target is T4, GFP-p19^Arf (Mus musculus, UniProt Q64364).
T4 construct: expressed in transfected cells; host or cells: NIH 3T3 Arf-/- cells
T4 sequence (Q64364 1-169): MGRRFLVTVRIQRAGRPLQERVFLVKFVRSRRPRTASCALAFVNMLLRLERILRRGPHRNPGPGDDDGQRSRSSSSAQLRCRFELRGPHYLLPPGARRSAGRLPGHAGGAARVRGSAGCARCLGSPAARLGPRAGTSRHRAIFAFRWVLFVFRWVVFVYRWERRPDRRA
Kind of assay: Nuclear microinjection and live cell imaging of Texas Red labeled Hdm2 constructs in NIH 3T3 cells lacking Arf. The following applies: NIH 3T3 Arf-/- cells, nuclear microinjection. It is filed as cell-based. Here is the method: Proteins for fluorescence microimaging studies were covalently modified using an amine-reactive, sulfosuccinimidyl ester of Texas Red™ (Molecular Probes, Inc., Cat. # C-1171). In brief, purified Hdm2-derived proteins were dialyzed into 100 mM sodium bicarbonate buffer, pH 8.3 at 2-4 mg/ml. The Texas Red™ dye was dissolved in dimethylsulfoxide at 10 mg/ml. Protein and dye 3:1 (vol:vol) were reacted for 1 hour at room temperature followed by purification using size-exclusion chromatography (NAP 5 G-25 columns, Amersham Pharmacia Biotech, Inc.). Labeled protein bands migrated more slowly than unlabeled protein in SDS-polyacrylamide gels consistent with the covalent attachment of dye.
NIH 3T3 Arf^−/− cells passage 10-15 were cultured in Dulbecco's modified Eagle's medium (Dulbecco's modified Eagle's medium (DMEM); Gibco-Invitrogen, Inc.), 10% fetal bovine serum (FBS) at 37° C., 7% CO2. 24 hours prior to transfection, cells were plated on 35 mm dishes coated with poly-D-Lysine (Mattek, Corp.) at a density of 3×10^4 cells per dish. Cells were transfected with a pcDNA plasmid (Invitrogen) containing the GFP-p19^ARF fusion protein using Fugene-6 (Roche Molecular Biochemicals, Inc.) in media according to the protocol supplied by the manufacturer. Sixteen hours post-transfection, the transfection media was refreshed with DMEM, 10% FBS and the cells were allowed to recover for four hours. […] An Axiovert 135 TV inverted fluorescence microscope with an automated stage controller (Carl Zeiss, Inc.) and circulating water bath heater (Fisher) was used for both microinjection and imaging. […]
Hdm2 deletion constructs tagged with a fluorescent label (Texas Red™) were microinjected into the nucleus of NIH 3T3 cells. importantly, the NIH 3T3 cell line used lacks the gene for Arf. […] A covalently bound fluorescent label was used to detect Hdm2 fragments instead of immuno fluorescence to avoid nonspecific background staining and staining variability due to differential antibody reactivity. […]

T1 sequence (Q00987 210-304): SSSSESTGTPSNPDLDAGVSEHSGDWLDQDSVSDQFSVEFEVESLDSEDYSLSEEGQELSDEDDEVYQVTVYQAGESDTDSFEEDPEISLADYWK

Take “human A1 (1-14): Peptide containing the human Arf motif A1, residues 1-14 (MVRRFLVTLRIRRA)”: the “induction of β-strand secondary structure when mixed with Hdm2 210-304 (CD)” value (“induction of β-strand secondary structure … (CD)” below) in the assay with Hdm2 210-304 is listed as “produce the random-to-β-strand structure transition”. Moreover, the “induction of β-strand assembly when mixed with Hdm2 210-275 (CD)” value (from here on “induction of β-strand assembly”) with Hdm2 210-275 is listed as “interaction”. Take “mArfN37: N-terminal fragment of mouse p19^Arf corresponding to residues 1-37 (MGRRFLVTVRIQRAGRPLQERVFLVKFVRSRRPRTAS)”: in the assay with Hdm2 210-304, the “induction of β-strand secondary structure … (CD)” value is on record as “striking transition from random conformations to β-strand secondary structure”. In addition, the “induction of β-strand assembly” value with Hdm2 210-275 is on record as “striking transition from random conformations to β-strand secondary structure”. Consider “mouse A2 (16-30): Peptide corresponding to the mouse Arf motif A2, residues 16-30 (RPLQERVFLVKFVRS)”, for which the “induction of β-strand secondary structure … (CD)” value with Hdm2 210-304 was “induce the transition from random conformations to β-strand secondary structure”. Further, the “induction of β-strand assembly” value with Hdm2 210-275 is recorded as “fail to induce β-strand assembly”.

For the substance “residues 290-304 of SEQ ID NO:8: short synthetic Hdm2 peptide containing residues 290-304 of SEQ ID NO:8 (SFEEDPEISLADYWK; listed as Homo sapiens)”, the “relative binding affinity for mArfN37 (SPR)” value in the assay with mArfN37 (short synthetic Hdm2 peptides, 15 amino acids) was “modest affinity”. Consider “Hdm2 210-304: Fragment of Hdm2 corresponding to residues 210-304 of SEQ ID NO:8”, for which the “binding to His-tagged mArfN37 immobilized on the SPR biosensor surface” value with mArfN37 (His-mArfN37 captured by covalently linked His antibody) is “bind tightly”. Also, in the assay with GFP-p19^Arf, the “localization of Texas Red labeled Hdm2 construct in cells that did not express Arf” value is given as “evenly dispersed in the nucleoplasm” and the “localization of Texas Red labeled Hdm2 construct when GFP-p19^Arf is expressed” value was “co-localized within nucleoli; also recorded: nucleolar localization”.

Take “Hdm2 277-491: Texas Red labeled Hdm2 deletion construct containing residues 277-491”: in the assay with GFP-p19^Arf, the “localization of Texas Red labeled Hdm2 construct when GFP-p19^Arf is expressed” value is “nucleolar localization”.

Take “human A2 (16-30): Peptide containing the human Arf motif A2, residues 16-30 (GPPRVRVFVVHIPRL)”: the “induction of β-strand secondary structure … (CD)” value with Hdm2 210-304 is on record as “produce the random-to-β-strand structure transition”. Further, in the assay with Hdm2 210-275, the “induction of β-strand assembly” value was “fail to induce β-strand assembly”. On to “mouse A1 (1-14): Peptide corresponding to the mouse Arf motif A1, residues 1-14 (MGRRFLVTVRIQRA)”, for which the “induction of β-strand secondary structure … (CD)” value in the assay with Hdm2 210-304 is on record as “induce the transition from random conformations to β-strand secondary structure”. In addition, the “induction of β-strand assembly” value with Hdm2 210-275 is listed as “interaction”.
